Experimental data published in US20220073608A1.

Key:
[1] = target: T1, human SEMA4D, full length, on CHO-K1 cells (CHO-K1 hSEMA4D) (human) (UniProt Q92854); experiment: FACS, CHO-K1 hSEMA4D cells; Ab 13.3 nM
T1 sequence (looked up): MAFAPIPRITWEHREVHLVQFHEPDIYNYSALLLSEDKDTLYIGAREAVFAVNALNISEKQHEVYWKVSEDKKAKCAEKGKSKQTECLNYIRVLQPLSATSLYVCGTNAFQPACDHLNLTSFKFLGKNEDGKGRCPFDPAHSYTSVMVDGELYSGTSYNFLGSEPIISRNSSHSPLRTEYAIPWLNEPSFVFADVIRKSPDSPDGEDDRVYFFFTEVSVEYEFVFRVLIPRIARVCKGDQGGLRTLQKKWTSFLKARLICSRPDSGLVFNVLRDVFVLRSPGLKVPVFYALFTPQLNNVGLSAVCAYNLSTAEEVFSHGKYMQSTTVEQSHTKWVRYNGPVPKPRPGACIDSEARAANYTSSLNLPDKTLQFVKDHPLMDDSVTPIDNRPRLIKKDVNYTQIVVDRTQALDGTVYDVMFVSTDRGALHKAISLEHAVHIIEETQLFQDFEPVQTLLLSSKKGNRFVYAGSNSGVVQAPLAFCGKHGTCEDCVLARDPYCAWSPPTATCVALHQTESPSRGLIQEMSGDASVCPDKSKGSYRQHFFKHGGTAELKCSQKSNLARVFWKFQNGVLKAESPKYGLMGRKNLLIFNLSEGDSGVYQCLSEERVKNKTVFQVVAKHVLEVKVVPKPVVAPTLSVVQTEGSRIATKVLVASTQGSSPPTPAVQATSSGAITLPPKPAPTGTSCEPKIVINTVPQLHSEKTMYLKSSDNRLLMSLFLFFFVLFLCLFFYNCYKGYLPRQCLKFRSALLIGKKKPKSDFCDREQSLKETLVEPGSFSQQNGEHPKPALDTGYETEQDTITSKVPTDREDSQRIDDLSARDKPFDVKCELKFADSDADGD

[2] = target: mouse SEMA4D, full length, on CHO-K1 cells (CHO-K1 mSEMA4D) (mouse) (UniProt O09126); experiment: FACS, CHO-K1 mSEMA4D cells; Ab 13.3 nM
[3] = target: mouse SEMA4D, full length, on CHO-K1 cells (CHO-K1 mSEMA4D) (mouse) (UniProt O09126); experiment: FACS, CHO-K1 mSEMA4D cells; Ab 2.67 nM
[4] = target: T1, human SEMA4D, full length, on CHO-K1 cells (CHO-K1 hSEMA4D) (human); experiment: FACS, CHO-K1 hSEMA4D cells; Ab 0.107 nM
[5] = target: monkey SEMA4D, full length, on CHO-K1 cells (CHO-K1 cSEMA4D) (monkey); experiment: FACS, CHO-K1 cSEMA4D cells; Ab 0.534 nM
[6] = target: mouse SEMA4D, full length, on CHO-K1 cells (CHO-K1 mSEMA4D) (mouse) (UniProt O09126); experiment: FACS, CHO-K1 mSEMA4D cells; Ab 0.107 nM
[7] = target: mouse SEMA4D, full length, on CHO-K1 cells (CHO-K1 mSEMA4D) (mouse) (UniProt O09126); experiment: FACS, CHO-K1 mSEMA4D cells; Ab 0.534 nM
[8] = target: T1, human SEMA4D, full length, on CHO-K1 cells (CHO-K1 hSEMA4D) (human); experiment: FACS, CHO-K1 hSEMA4D cells; Ab 0.0213 nM
[9] = target: T1, human SEMA4D, full length, on CHO-K1 cells (CHO-K1 hSEMA4D) (human); experiment: FACS, CHO-K1 hSEMA4D cells; Ab 0.00427 nM
[10] = target: monkey SEMA4D, full length, on CHO-K1 cells (CHO-K1 cSEMA4D) (monkey); experiment: FACS, CHO-K1 cSEMA4D cells; Ab 0.00427 nM
[11] = target: mouse SEMA4D, full length, on CHO-K1 cells (CHO-K1 mSEMA4D) (mouse) (UniProt O09126); experiment: FACS, CHO-K1 mSEMA4D cells; Ab 0.00427 nM
[12] = target: T2, biotinylated hSEMA4D ECD-His (human) (UniProt Q92854); experiment: FACS, blocking of biotinylated hSEMA4D ECD-His binding to 293F hPlexin B1 cells; Ab 333 nM
T2 sequence (chain, biotinylated with Biotin-X-X-NHS at a molar ratio of 8,1; sites not stated): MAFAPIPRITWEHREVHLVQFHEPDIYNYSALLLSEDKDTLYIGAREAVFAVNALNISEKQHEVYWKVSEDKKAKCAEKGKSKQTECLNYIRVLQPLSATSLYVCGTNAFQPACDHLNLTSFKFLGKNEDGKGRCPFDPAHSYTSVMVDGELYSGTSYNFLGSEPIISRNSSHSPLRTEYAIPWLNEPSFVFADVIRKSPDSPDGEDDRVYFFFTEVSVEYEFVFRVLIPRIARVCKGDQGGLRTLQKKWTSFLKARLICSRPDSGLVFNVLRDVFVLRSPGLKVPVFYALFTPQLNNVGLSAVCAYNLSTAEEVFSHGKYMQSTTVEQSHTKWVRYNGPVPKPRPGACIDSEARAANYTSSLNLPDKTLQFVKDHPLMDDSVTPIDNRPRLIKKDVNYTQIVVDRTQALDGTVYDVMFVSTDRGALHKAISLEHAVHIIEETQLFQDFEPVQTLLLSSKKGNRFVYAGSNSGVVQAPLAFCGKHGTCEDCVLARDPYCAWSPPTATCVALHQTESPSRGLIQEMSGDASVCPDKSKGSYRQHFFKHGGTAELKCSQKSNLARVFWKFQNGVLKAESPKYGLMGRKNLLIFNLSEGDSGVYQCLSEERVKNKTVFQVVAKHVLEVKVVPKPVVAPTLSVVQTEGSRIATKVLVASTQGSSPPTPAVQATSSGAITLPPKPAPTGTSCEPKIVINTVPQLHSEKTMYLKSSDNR

[13] = target: T2, biotinylated hSEMA4D ECD-His (human); experiment: FACS, blocking of biotinylated hSEMA4D ECD-His binding to 293F hPlexin B1 cells; Ab 66.7 nM
[14] = target: T2, biotinylated hSEMA4D ECD-His (human); experiment: FACS, blocking of biotinylated hSEMA4D ECD-His binding to 293F hPlexin B1 cells; Ab 0.0213 nM
[15] = target: T2, biotinylated hSEMA4D ECD-His (human); experiment: FACS, blocking of biotinylated hSEMA4D ECD-His binding to 293F hPlexin B1 cells; Ab 0.00427 nM

| Substance | MFI [1] | MFI [2] | MFI [3] | MFI [4] | MFI [5] | MFI [6] | MFI [7] | MFI [8] | MFI [9] | MFI [10] | MFI [11] | MFI (residual ligand binding) [12] | MFI (residual ligand binding) [13] | MFI (residual ligand binding) [14] | MFI (residual ligand binding) [15] |
| --- | --- | --- | --- | --- | --- | --- | --- | --- | --- | --- | --- | --- | --- | --- | --- |
| Mouse IgG control (antibody) | 40.2 | 30.3 | 30.4 | 36.1 | 24.9 | 29.8 | 29.5 | 35.8 | 35.5 | 22.5 | 30.1 | 464 | 471 | 468 | 486 |
| Human IgG control (antibody) | 35.8 | 23.8 | 23.9 | 38 | 32.1 | 24.1 | 23.7 | 38.2 | 37.4 | 31.6 | 23.7 | 307 | 321 | 359 | 378 |
